Experimental data taken from patent US20220177587A1, “METHODS AND USES OF VARIANT CD80 FUSION PROTEINS AND RELATED CONSTRUCTS” (Alpine Immune Sciences, Inc., priority 2018, published 2022).
Positions count from the first letter of the chain named. Names may count otherwise. Each block holds one molecule with its values, some of them ahead of it.

Assays:
[1] = target: T1, CD28 (Homo sapiens, UniProt P10747); assay: Flow binding to Jurkat/IL2 reporter cells (CD28); design: host or cells: Jurkat cells expressing an IL-2-luciferase reporter; conditions: for CD28 Fold change to WT CD80: MFI at 33.3 nM relative to CD80 WT IgV-Fc
How it was run: (§1)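 Flow cytometry on transfected CHO cells or CD28+ Jurkat/IL2 reporter cells, blocked 20 min in PBS/1% BSA/0.1% azide. Fusion protein 45 min on ice; PE anti-human Fc 1:150, 30 min on ice; fixed in 2% formaldehyde. Read-out PE MFI, EC50 calculated.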

[2] = target: T1, CD28; assay: Jurkat/IL2 + CHO/OKT3 +/- PD-L1 reporter assay: PD-L1-dependent CD28 costimulation; type: cell-based; design: host or cells: Jurkat cells expressing an IL-2-luciferase reporter; conditions: Jurkat/IL2 + CHO/OKT3/PD-L1
How it was run: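 Jurkat reporter cells (100,000/well) preincubated 15 min at room temperature with test protein, then cocultured 5 h at 37 °C with CHO aAPCs bearing anti-CD3 scFv (OKT3) with or without PD-L1. Luciferase luminescence (RLU) read after lysis-substrate addition.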

[3] = target: huCTLA4 (Homo sapiens, UniProt P16410); assay: Flow binding to CHO cells stably expressing CTLA4; design: huCTLA4 and huPD-L1, full-length mammalian surface expression constructs were generated; expressed in transfected cells; host or cells: CHO cells, lentiviral transduction, sorted to >98% purity; conditions: for CTLA4 MFI at 33.3 nM: CHO cells stably expressing CTLA4; for CTLA4 Fold change to WT CD80: MFI at 33.3 nM relative to CD80 WT IgV-Fc
How it was run: as §1

[4] = target: huPD-L1 (Homo sapiens, UniProt Q9NZQ7); assay: Flow binding to CHO cells stably expressing PD-L1; design: huCTLA4 and huPD-L1, full-length mammalian surface expression constructs were generated; expressed in transfected cells; host or cells: CHO cells, lentiviral transduction, sorted to >98% purity; conditions: Table E23; for PD-L1 MFI at 33.3 nM: CD80 IgV-Fc (inert) at 33.3 nM, CHO cells stably expressing PD-L1; for PD-L1 Fold change to WT CD80: MFI at 33.3 nM relative to CD80 WT IgV-Fc; for Ratio of PDL1:CD28: ratio of MFI at 33.3 nM
How it was run: as §1

[5] = Table E11, Jurkats (CD28), 33.3 nM
[6] = Table E10, 33.3 nM, Jurkats (CD28)
[7] = Table E20, Jurkats (CD28), 33.3 nM
[8] = Table E19, Jurkats (CD28), 33.3 nM
[9] = Table E23, CD80 IgV-Fc (inert) at 33.3 nM, Jurkat (CD28)
[10] = Table E23, CD80 IgV-Fc (inert) at 33.3 nM
[11] = Table E16, consensus variants, Jurkats (CD28), 33.3 nM
[12] = Table E16, consensus variants, 33.3 nM

huPD-L1, sequence (Q9NZQ7 19-290): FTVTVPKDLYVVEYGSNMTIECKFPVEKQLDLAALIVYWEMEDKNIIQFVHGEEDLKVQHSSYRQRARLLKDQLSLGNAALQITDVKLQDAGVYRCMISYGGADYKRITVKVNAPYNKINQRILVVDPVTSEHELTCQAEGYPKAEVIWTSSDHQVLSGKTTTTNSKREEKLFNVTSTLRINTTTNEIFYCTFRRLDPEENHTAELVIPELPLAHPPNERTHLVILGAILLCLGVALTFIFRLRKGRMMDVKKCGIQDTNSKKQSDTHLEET
huCTLA4, sequence (P16410 36-223): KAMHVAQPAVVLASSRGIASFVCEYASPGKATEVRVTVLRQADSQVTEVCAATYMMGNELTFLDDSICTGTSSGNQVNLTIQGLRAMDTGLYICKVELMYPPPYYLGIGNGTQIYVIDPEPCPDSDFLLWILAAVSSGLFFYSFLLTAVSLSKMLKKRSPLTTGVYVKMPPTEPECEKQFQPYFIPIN

CD28 MFI at 33.3 nM [1, 5]: 191 | Relative Luciferase Units (RLU), CD80 Cone 5.0 nM ([2]; Table E13): 1023 RLU | CTLA4 MFI at 33.3 nM ([3]; Table E11, 33.3 nM): 16899
B1: V22D/E24D/E35D/M47V/V68M (protein)
chain: VIHVTKEVKEVATLSCGHNVSDEDLAQTRIYWQKDKKMVLTMMSGDVNIWPEYKNRTIFDITNNLSIMILALRPSDEGTYECVVLKYEKDAFKREHLAEVTLSVKADFPTPSISDFETPTSNIRRIICSTSGGFPEPHLSWLENGEELNAINTTVSQDPETELYAVSSKLDFNMTTNHSFMCLIKYGHLRVNQTFNWNTTKQEHFPDN
modifications: CD80 v385 ECD

CD28 MFI at 33.3 nM [1, 6]: 99.4 | Relative Luciferase Units (RLU), CD80 Cone 5.0 nM ([2]; Table E12): 1402 RLU | CTLA4 MFI at 33.3 nM ([3]; Table E10, 33.3 nM): 31230
B2: E35D/M47V/T62S/L85Q (protein)
chain: VIHVTKEVKEVATLSCGHNVSVEELAQTRIYWQKDKKMVLTMMSGDVNIWPEYKNRTIFDISNNLSIVILALRPSDEGTYECVVQKYEKDAFKREHLAEVTLSVKAD

CD28 MFI at 33.3 nM [1, 6]: 274 | Relative Luciferase Units (RLU), CD80 Cone 5.0 nM ([2]; Table E12): 1176 RLU | CTLA4 MFI at 33.3 nM ([3]; Table E10, 33.3 nM): 28848
B3: E35D/M47V/I61V/L85M (protein)
chain: B2 chain with I61V, S62T, Q85M

CD28 MFI at 33.3 nM [1, 7]: 2001 | Relative Luciferase Units (RLU), CD80 Conc 5.0 nM ([2]; Table E22): 933 RLU | CTLA4 MFI at 33.3 nM ([3]; Table E20, 33.3 nM): 19878
B4: H18Y/A26E/A71G/D90G (protein)
chain: B2 chain with H18Y, A26E, D35E, V47M, S62T, A71G, Q85L, D90G

CD28 MFI at 33.3 nM [1, 8]: 1324 | Relative Luciferase Units (RLU), CD80 Conc 5.0 nM ([2]; Table E21): 862 RLU | CTLA4 MFI at 33.3 nM ([3]; Table E19, 33.3 nM): 24787
B5: M47V/V68M/K89N (protein)
chain: B2 chain with D35E, S62T, V68M, Q85L, K89N

CD28 MFI at 33.3 nM [1, 9]: 5125 | CD28 Fold change to WT CD80 ([1]; Table E23): 50.2 | CTLA4 MFI at 33.3 nM [3, 10]: 12156 | CTLA4 Fold change to WT CD80 ([3]; Table E23): 8.8 | PD-L1 MFI at 33.3 nM [4]: 54482 | PD-L1 Fold change to WT CD80 [4]: 330.2 | Ratio of PDL1:CD28 [4]: 10.6
B6: H18Y/A26P/E35D/M471/V68M/A71G (protein)
chain: B2 chain with H18Y, A26P, V47I, S62T, V68M, A71G, Q85L

CD28 MFI at 33.3 nM [1, 8]: 642 | Relative Luciferase Units (RLU), CD80 Conc 5.0 nM ([2]; Table E21): 721 RLU | CTLA4 MFI at 33.3 nM ([3]; Table E19, 33.3 nM): 33583
B7: E35D/N48K/V68M (protein)
chain: B2 chain with V47M, N48K, S62T, V68M, Q85L

CD28 MFI at 33.3 nM [1, 7]: 2843 | Relative Luciferase Units (RLU), CD80 Conc 5.0 nM ([2]; Table E22): 990 RLU | CTLA4 MFI at 33.3 nM ([3]; Table E20, 33.3 nM): 23290
B8: E35D/V68M/A71G/D90G (protein)
chain: B2 chain with V47M, S62T, V68M, A71G, Q85L, D90G

CD28 MFI at 33.3 nM [1, 8]: 507 | Relative Luciferase Units (RLU), CD80 Conc 5.0 nM ([2]; Table E21): 668 RLU | CTLA4 MFI at 33.3 nM ([3]; Table E19, 33.3 nM): 39282
B9: E35D/M47V/K89N (protein)
chain: B2 chain with S62T, Q85L, K89N

CD28 MFI at 33.3 nM [1, 6]: 23.7 | Relative Luciferase Units (RLU), CD80 Cone 5.0 nM ([2]; Table E12): 466 RLU | CTLA4 MFI at 33.3 nM ([3]; Table E10, 33.3 nM): 23334
B10: E35D/M47V/L85M/R94Q (protein)
chain: B2 chain with S62T, Q85M, R94Q

CD28 MFI at 33.3 nM [1, 5]: 201 | Relative Luciferase Units (RLU), CD80 Cone 5.0 nM ([2]; Table E13): 1167 RLU | CTLA4 MFI at 33.3 nM ([3]; Table E11, 33.3 nM): 15997
B11: E35D/M47V/V68M/L85M (protein, UniProt P33681 35-288, looked up, variant E35D M47V V68M L85M)
T-lymphocyte activation …: VIHVTKEVKEVATLSCGHNVSVEELAQTRIYWQKDKKMVLTMMSGDVNIWPEYKNRTIFDITNNLSIMILALRPSDEGTYECVVMKYEKDAFKREHLAEVTLSVKADFPTPSISDFEIPTSNIRRIICSTSGGFPEPHLSWLENGEELNAINTTVSQDPETELYAVSSKLDFNMTTNHSFMCLIKYGHLRVNQTFNWNTTKQEHFPDNLLPSWAITLISVNGIFVICCLTYCFAPRCRERRRNERLRRESVRPV

CD28 MFI at 33.3 nM [1, 5]: 16 | Relative Luciferase Units (RLU), CD80 Cone 5.0 nM ([2]; Table E13): 155 RLU | CTLA4 MFI at 33.3 nM ([3]; Table E11, 33.3 nM): 91
B12: R29C/E35D/M47L/V68M/A71G/L85M (protein, UniProt P33681 35-288, looked up, variant R29C E35D M47L V68M A71G L85M)
T-lymphocyte activation …: B11 T-lymphocyte activation … with R29C, V47L, A71G
modifications: Fc fusion

CD28 MFI at 33.3 nM [1, 9]: 8189 | CTLA4 MFI at 33.3 nM [3, 10]: 25398 | PD-L1 MFI at 33.3 nM [4]: 66198
B13: H18V/A26G/E35D/M47V/V68M/A71G/D90G (protein, UniProt P33681 35-288, looked up, variant H18V A26G E35D M47V V68M A71G D90G)
T-lymphocyte activation …: B11 T-lymphocyte activation … with H18V, A26G, A71G, M85L, D90G

CD28 MFI at 33.3 nM [1, 9]: 6349 | CTLA4 MFI at 33.3 nM [3, 10]: 20280 | PD-L1 MFI at 33.3 nM [4]: 64761
B14: H18L/E35D/M47V/V68M/A71G/D90G (protein, UniProt P33681 35-288, looked up, variant H18L E35D M47V V68M A71G D90G)
T-lymphocyte activation …: B11 T-lymphocyte activation … with H18L, A71G, M85L, D90G

CD28 MFI at 33.3 nM [1, 5]: 14.5 | CD28 MFI at 33.3 nM [1, 11]: 2602 | Relative Luciferase Units (RLU), CD80 Cone 5.0 nM ([2]; Table E13): 225 RLU | CTLA4 MFI at 33.3 nM ([3]; Table E11, 33.3 nM): 20475 | CTLA4 MFI at 33.3 nM [3, 12]: 18022
B15: H18Y/E35D/M47L/V68M/E95V/L97Q (protein, UniProt P33681 35-288, looked up, variant H18Y E35D M47L V68M E95V L97Q)
T-lymphocyte activation …: B11 T-lymphocyte activation … with H18Y, V47L, M85L, E95V, L97Q

CD28 MFI at 33.3 nM [1, 9]: 2573 | CD28 Fold change to WT CD80 ([1]; Table E23): 25.2 | CTLA4 MFI at 33.3 nM [3, 10]: 21923 | CTLA4 Fold change to WT CD80 ([3]; Table E23): 15.8 | PD-L1 MFI at 33.3 nM [4]: 64919 | PD-L1 Fold change to WT CD80 [4]: 393.4 | Ratio of PDL1:CD28 [4]: 25.2
B16: H18I/A26P/E35D/M47V/V68M/A71G (protein, UniProt P33681 35-288, looked up, variant H18I A26P E35D M47V V68M A71G)
T-lymphocyte activation …: B11 T-lymphocyte activation … with H18I, A26P, A71G, M85L

CD28 MFI at 33.3 nM [1, 5]: 373 | CD28 MFI at 33.3 nM [1, 11]: 1387 | Relative Luciferase Units (RLU), CD80 Cone 5.0 nM ([2]; Table E13): 1013 RLU | Relative Luciferase Units (RLU), CD80 Cone 5.0 nM ([2]; Table E17, consensus variants): 2575 RLU | CTLA4 MFI at 33.3 nM ([3]; Table E11, 33.3 nM): 18367 | CTLA4 MFI at 33.3 nM [3, 12]: 19306
B17: H18Y/E35D/M47V/V68M/L85M (protein, UniProt P33681 35-288, looked up, variant H18Y E35D M47V V68M L85M)
T-lymphocyte activation …: B11 T-lymphocyte activation … with H18Y
